According to paper PMC8497999 (iScience, 2021):
Substitutions are numbered along the chain they refer to. Names and notes keep the numbering of the source. Read-outs that look alike come from different tables or passages of the source.

B1: ECSIT, tag-free (mature human mitochondrial ECSIT) (natural protein)
chain: SSEQSLVPSPPEPRQRPTKALVPFEDLFGQAPGGERDKASFLQTVQKFAEHSVRKRGHIDFIYLALRKMREYGVERDLAVYNQLLNIFPKEVFRPRNIIQRIFVHYPRQQECGIAVLEQMENHGVMPNKETEFLLIQIFGRKSYPMLKLVRLKLWFPRFMNVNPFPVPRDLPQDPVELAMFGLRHMEPDLSARVTIYQVPLPKDSTGAADPPQPHIVGIQSPDQQAALARHNPARPVFVEGPFSLWLRNKCVYYHILRADLLPPEEREVEETPEEWNLYYPMQLDLEYVRSGWDNYEFDINEVEEGPVFAMCMAGAHDQATMAKWIQGLQETNPTLAQIPVVFRLAGSTRELQTSSAGLEEPPLPEDHQEEDDNLQRQQQGQS
B2: His6-SMT3-NDUFAF1 (SUMO fusion of mature human NDUFAF1) (natural protein)
chain: YPFLGIRFAEYSSSLQKPVASPGKASSQRKTEGDLQGDHQKEVALDITSSEEKPDVSFDKAIRDEAIYHFRLLKDEIVDHWRGPEGHPLHEVLLEQAKVVWQFRGKEDLDKWTVTSDKTIGGRSEVFLKMGKNNQSALLYGTLSSEAPQDGESTRSGYCAMISRIPRGAFERKMSYDWSQFNTLYLRVRGDGRPWMVNIKEDTDFFQRTNQMYSYFMFTRGGPYWQEVKIPFSKFFFSNRGRIRDVQHELPLDKISSIGFTLADKVDGPFFLEIDFIGVFTDPAHTEEFAYENSPELNPRLFK
B3: His6-C-ECSIT (C-terminal domain of ECSIT, Leu249-Ser431, with N-terminal His tag) (domain or fragment)
chain: LPKDSTGAADPPQPHIVGIQSPDQQAALARHNPARPVFVEGPFSLWLRNKCVYYHILRADLLPPEEREVEETPEEWNLYYPMQLDLEYVRSGWDNYEFDINEVEEGPVFAMCMAGAHDQATMAKWIQGLQETNPTLAQIPVVFRLAGSTRELQTSSAGLEEPPLPEDHQEEDDNLQRQQQGQS
B4: C-ECSIT, tag-free (C-terminal domain of ECSIT, Leu249-Ser431) (domain or fragment)
chain: B3 chain
B5: Loop12-ACAD9 (ACAD9-His6 with the linker between Thr450 and Asp480 replaced by 12 residues of GGS repeats) (enzyme)
chain: AFAKELFLGKIKKKEVFPFPEVSQDELNEINQFLGPVEKFFTEEVDSRKIDQEGKIPDETLEKLKSLGLFGLQVPEEYGGLGFSNTMYSRLGEIISMDGSITVTLAAHQAIGLKGIILAGTEEQKAKYLPKLASGEHIAAFCLTEPASGSDAASIRSRATLSEDKKHYILNGSKVWITNGGLANIFTVFAKTEVVDSDGSVKDKITAFIVERDFGGVTNGKPEDKLGIRGSNTCEVHFENTKIPVENILGEVGDGFKVAMNILNSGRFSMGSVVAGLLKRLIEMTAEYACTRKQFNKRLSEFGLIQEKFALMAQKAYVMESMTYLTAGMLDQPGFPDCSIEAAMVKVFSSEAAWQCVSEALQILGGLGYTRDYPYERILRDTRILLIFEGTNEILRMYIALTGLQHAGRILTTGGSGGSGGSGGSDLGLTGNHGVVHPSLADSANKFEENTYCFGRTVETLLLRFGKTIMEEQLVLKRVANILINLYGMTAVLSRASRSIRIGLRNHDHEVLLANTFCVEAYLQNLFSLSQLDKYAPENLDEQIKKVSQQILEKRAYICAHPLDRTC
B6: ACAD9-His6 R469W (enzyme)
chain: AFAKELFLGKIKKKEVFPFPEVSQDELNEINQFLGPVEKFFTEEVDSRKIDQEGKIPDETLEKLKSLGLFGLQVPEEYGGLGFSNTMYSRLGEIISMDGSITVTLAAHQAIGLKGIILAGTEEQKAKYLPKLASGEHIAAFCLTEPASGSDAASIRSRATLSEDKKHYILNGSKVWITNGGLANIFTVFAKTEVVDSDGSVKDKITAFIVERDFGGVTNGKPEDKLGIRGSNTCEVHFENTKIPVENILGEVGDGFKVAMNILNSGRFSMGSVVAGLLKRLIEMTAEYACTRKQFNKRLSEFGLIQEKFALMAQKAYVMESMTYLTAGMLDQPGFPDCSIEAAMVKVFSSEAAWQCVSEALQILGGLGYTRDYPYERILRDTRILLIFEGTNEILRMYIALTGLQHAGRILTTRIHELKQAKVSTVMDTVGWRLRDSLGRTVDLGLTGNHGVVHPSLADSANKFEENTYCFGRTVETLLLRFGKTIMEEQLVLKRVANILINLYGMTAVLSRASRSIRIGLRNHDHEVLLANTFCVEAYLQNLFSLSQLDKYAPENLDEQIKKVSQQILEKRAYICAHPLDRTC
B7: ACAD9-His6 (wild type ACAD9 with a C-terminal His-tag) (enzyme)
chain: B6 chain with W432R
B8: ACAD9-His6 R518H (enzyme)
chain: B6 chain with W432R, R481H
B9: ACAD9-His6 E426Q (enzyme)
chain: B6 chain with E389Q, W432R
B10: ACAD9-His6 R532W (enzyme)
chain: B6 chain with W432R, R495W
B11: ACAD9 (non-tagged wild type) (enzyme)
chain: B6 chain with W432R

Key:
[1] = target: B7; assay: pull-down
[2] = target: T1, His6-ECSIT (mature human mitochondrial ECSIT with N-terminal His tag) (human, UniProt Q9BQ95 49-431); assay: SEC
T1 sequence: B1 chain

[3] = target: T1, His6-ECSIT (mature human mitochondrial …); assay: SEC; remark: listed apart in the source
[4] = target: B11; assay: SEC
SEC = target: the molecule itself; assay: SEC
SEC-SAXS = target: the molecule itself; assay: SEC-SAXS

Binder | stoichiometry N (SEC) | also measured
B1 | – | stoichiometry N [1]: ~1 monomer:monomer
B2 | – | stoichiometry N [2]: 1 NDUFAF1 monomer per ECSIT monomer (2:2); stoichiometry N [3]: 1 monomer:monomer
B3 | 4 | stoichiometry N [4]: 1 C-ECSIT monomer per ACAD9 monomer (4:4)
B4 | – | stoichiometry N [1]: ~1 monomer:monomer
B5 | 2 | –
B6 | 2 | –
B7 | 2 | –
B8 | 2 | –
B9 | 2 | –
B10 | 2 | –
B11 | – | stoichiometry N (SEC-SAXS): 2
